CN108546297A (ACAD OF MILITARY SCIENCES PLA CHINA ACAD OF MILITARY …, dated 2018)

Assays:
CD28/Fc = biological target: T1, CD28/Fc (UniProt P10747 19-152); assay: indirect ELISA, antigen coated at 1 μg/mL, goat anti-human F(ab')2-HRP
T1 construct: not shown: Fc part of the fusion

CTLA4/Fc = biological target: T2, CTLA4/Fc (UniProt P16410 36-162, limits assumed); assay: as above
T2 construct: not shown: Fc part of the fusion
T2 sequence (looked up): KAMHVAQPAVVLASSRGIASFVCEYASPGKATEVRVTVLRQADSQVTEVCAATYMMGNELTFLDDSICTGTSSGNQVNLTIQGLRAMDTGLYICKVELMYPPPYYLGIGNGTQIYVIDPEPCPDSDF

BTLA/Fc = biological target: T3, BTLA/Fc (UniProt Q7Z6A9 31-157, limits assumed); assay: as above
T3 construct: not shown: Fc part of the fusion
T3 sequence (looked up): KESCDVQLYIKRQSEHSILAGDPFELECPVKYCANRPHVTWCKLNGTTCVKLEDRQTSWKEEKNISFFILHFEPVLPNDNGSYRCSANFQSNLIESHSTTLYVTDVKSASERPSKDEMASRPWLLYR

ICOS/Fc = biological target: T4, ICOS/Fc (UniProt Q9Y6W8 21-141); assay: as above
T4 construct: not shown: Fc part of the fusion
T4 sequence (looked up): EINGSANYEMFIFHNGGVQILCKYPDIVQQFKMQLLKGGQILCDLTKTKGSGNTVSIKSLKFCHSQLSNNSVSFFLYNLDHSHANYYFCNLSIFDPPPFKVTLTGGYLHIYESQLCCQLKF

PD-1/Fc = biological target: T5, PD-1/Fc (UniProt Q15116 25-167); assay: Biacore SPR: antibody captured by anti-human Fab on a CM5 chip, PD-1/Fc as analyte
T5 construct: also called PD-1/Fc抗原; PD-1/Fc融合蛋白; not shown: Fc part of the fusion
T5 sequence (Q15116 25-167 limits assumed): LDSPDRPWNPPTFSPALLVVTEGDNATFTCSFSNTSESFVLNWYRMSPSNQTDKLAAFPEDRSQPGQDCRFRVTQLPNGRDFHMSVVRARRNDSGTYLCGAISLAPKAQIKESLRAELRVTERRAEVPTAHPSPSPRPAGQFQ

T1 sequence (P10747 19-152 limits assumed): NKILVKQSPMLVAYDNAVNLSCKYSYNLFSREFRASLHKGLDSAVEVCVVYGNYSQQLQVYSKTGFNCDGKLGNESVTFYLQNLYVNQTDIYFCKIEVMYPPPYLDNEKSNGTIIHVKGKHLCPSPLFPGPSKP

B1: 本发明制备的抗PD-1抗体 (anti-PD-1 monoclonal antibody of the invention) (antibody, V domains shown)
VH: QVQLVESGGGVVQPGRSLRLNCKASGITFSNSGMHWVRQAPGKGLEWVAVIWYDGSKLYYADSVKGRFTISRDNSKNTLFLQMNSLRAEDTAVYYCATDSDYWGQGTLVTVSS
VL: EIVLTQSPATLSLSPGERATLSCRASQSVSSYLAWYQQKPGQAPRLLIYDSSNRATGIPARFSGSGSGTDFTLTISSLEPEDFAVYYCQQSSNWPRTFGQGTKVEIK
notes: Variable regions cloned into the full-length antibody vector PRT/KIgG1 (IgG1 heavy constant region CH1-CH2-CH3, kappa light constant region); also called 本发明制备抗体
Q: Which results are given for B1?
A: binding result (CD28/Fc): no binding (tested: antibody at 1 μg/mL); binding result (CTLA4/Fc): no binding (tested: antibody at 1 μg/mL); binding result (BTLA/Fc): no binding (tested: antibody at 1 μg/mL); binding result (ICOS/Fc): no binding (tested: antibody at 1 μg/mL); Kd (PD-1/Fc): 328 pM; koff (PD-1/Fc): 9.6e-05 s⁻¹; kon (PD-1/Fc): 292000 M⁻¹ s⁻¹
